Measurements published in article PMC7305210, “Mitochondria-adaptor TRAK1 promotes kinesin-1 driven transport in crowded environments” (Nature Communications, 2020).
Blank lines part the entries; values can stand above or below the binder they belong to.

Columns and labels:
[1] = target: microtubules polymerized from porcine tubulin (porcine, UniProt P02550 1-451; Q767L7 1-444, Alexa Fluor 647 NHS ester on 20% of the tubulin in fluorescently labeled microtubules | Alexa Fluor 647 NHS ester on 20% of the tubulin in fluorescently labeled microtubules); assay: single-molecule TIRF microscopy, two-colour co-movement on immobilised microtubules; KIF5B construct and 175 nM TRAK1 construct pre-incubated 10 min on ice, flushed onto bare immobilised microtubules in motility buffer with 1 mM Mg-ATP; room temperature; for the complexes traces of the mCherry-TRAK1 channel analysed; conditions: both partners purified
[2] = target: the molecule itself; assay: single-molecule fluorescence intensity distributions (TIRF) with labelling efficiencies from SEC absorption; intensity distributions of KIF5B∆-mCherry compared with mCherry-TRAK1 in the motility experiments; labelling efficiencies about 22% and about 88%
[3] = target: T1, GFP-labelled KIF5B∆ (KIF5B without the inhibitory domain, amino acids 906-963) (human, UniProt P33176 1-905); assay: as above; conditions: both partners purified
T1 construct: Constitutively active construct; also called KIF5B∆-GFP; source: SF9 insect cells (FlexiBAC baculovirus), purified (Ni-NTA, 6xHis cleaved by 3C PreScission protease, second Ni-NTA); not shown: GFP, C-terminal, kept; 6xHis, C-terminal, cleaved
T1 sequence (looked up): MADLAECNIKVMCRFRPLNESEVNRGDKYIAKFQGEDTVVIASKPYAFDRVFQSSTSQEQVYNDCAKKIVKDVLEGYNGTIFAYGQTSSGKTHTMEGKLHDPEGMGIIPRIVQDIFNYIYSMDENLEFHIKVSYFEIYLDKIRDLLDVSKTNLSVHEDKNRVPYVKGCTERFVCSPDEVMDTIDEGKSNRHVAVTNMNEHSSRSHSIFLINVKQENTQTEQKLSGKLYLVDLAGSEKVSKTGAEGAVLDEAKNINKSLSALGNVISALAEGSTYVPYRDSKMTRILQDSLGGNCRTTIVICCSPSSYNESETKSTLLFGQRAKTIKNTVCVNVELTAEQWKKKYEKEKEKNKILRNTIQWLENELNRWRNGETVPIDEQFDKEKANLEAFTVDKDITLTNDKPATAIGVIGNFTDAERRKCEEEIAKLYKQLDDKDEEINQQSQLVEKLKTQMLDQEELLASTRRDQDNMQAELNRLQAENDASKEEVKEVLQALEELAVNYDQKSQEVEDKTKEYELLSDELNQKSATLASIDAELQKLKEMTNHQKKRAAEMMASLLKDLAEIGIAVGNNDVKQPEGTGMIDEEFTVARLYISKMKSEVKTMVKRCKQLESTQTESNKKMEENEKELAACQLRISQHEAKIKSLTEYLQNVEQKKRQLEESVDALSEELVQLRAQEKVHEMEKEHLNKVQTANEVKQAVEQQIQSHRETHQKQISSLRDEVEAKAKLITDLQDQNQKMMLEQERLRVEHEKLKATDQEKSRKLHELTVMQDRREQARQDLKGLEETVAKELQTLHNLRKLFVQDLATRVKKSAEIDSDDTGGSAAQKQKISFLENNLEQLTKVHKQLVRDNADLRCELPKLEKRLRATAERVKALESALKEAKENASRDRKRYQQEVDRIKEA

- median interaction time with microtubules [1]: 12.2 s
B1: KIF5B∆-GFP in complex with mCherry-TRAK1 (complex)
chain 1: T1 sequence (looked up)
chain 2: MALVFQFGQPVRAQPLPGLCHGKLIRTNACDVCNSTDLPEVEIISLLEEQLPHYKLRADTIYGYDHDDWLHTPLISPDANIDLTTEQIEETLKYFLLCAERVGQMTKTYNDIDAVTRLLEEKERDLELAARIGQSLLKKNKTLTERNELLEEQVEHIREEVSQLRHELSMKDELLQFYTSAAEESEPESVCSTPLKRNESSSSVQNYFHLDSLQKKLKDLEEENVVLRSEASQLKTETITYEEKEQQLVNDCVKELRDANVQIASISEELAKKTEDAARQQEEITHLLSQIVDLQKKAKACAVENEELVQHLGAAKDAQRQLTAELRELEDKYAECMEMLHEAQEELKNLRNKTMPNTTSRRYHSLGLFPMDSLAAEIEGTMRKELQLEEAESPDITHQKRVFETVRNINQVVKQRSLTPSPMNIPGSNQSSAMNSLLSSCVSTPRSSFYGSDIGNVVLDNKTNSIILETEAADLGNDERSKKPGTPGTPGSHDLETALRRLSLRRENYLSERRFFEEEQERKLQELAEKGELRSGSLTPTESIMSLGTHSRFSEFTGFSGMSFSSRSYLPEKLQIVKPLEGSATLHHWQQLAQPHLGGILDPRPGVVTKGFRTLDVDLDEVYCLNDFEEDDTGDHISLPRLATSTPVQHPETSAHHPGKCMSQTNSTFTFTTCRILHPSDELTRVTPSLNSAPTPACGSTSHLKSTPVATPCTPRRLSLAESFTNTRESTTTMSTSLGLVWLLKERGISAAVYDPQSWDRAGRGSLLHSYTPKMAVIPSTPPNSPMQTPTSSPPSFEFKCTSPPYDNFLASKPASSILREVREKNVRSSESQTDVSVSNLNLVDKVRRFGVAKVVNSGRAHVPTLTEEQGPLLCGPPGPAPALVPRGLVPEGLPLRCPTVTSAIGGLQLNSGIRRNRSFPTMVGSSMQMKAPVTLTSGILMGAKLSKQTSLR
notes: KIF5B, kinesin-1 heavy chain, human, amino acids 1-905; as m2; TRAK1, cDNA KIAA1042; as m5; also called KIF5B∆-GFP-mCherry-TRAK1 complex; KIF5B∆-TRAK1 transport complex; source: the two purified proteins (m2 from SF9, m5 from HEK293T) pre-incubated 10 min on ice; not shown: GFP, C-terminal, kept; 6xHis, C-terminal, cleaved; mCherry, N-terminal, kept; TwinStrep-FLAG-Halo, N-terminal, cleaved; …

- stoichiometry N [3]: 1 TRAK1 dimer per KIF5B dimer
B2: mCherry-labelled full-length TRAK1 (natural protein, UniProt Q9UPV9-1 1-953, looked up)
chain: B1 chain 2
notes: TRAK1 (trafficking kinesin protein 1), cDNA KIAA1042 from the Kazusa DNA Research Institute; 953 residues by the printed region 636-953; also called mCherry-TRAK1; trafficking kinesin protein 1; source: HEK293T cells, transfected, purified (StrepTactinXT, eluted by TEV cleavage of the N-terminal tag, Superose 6 SEC); not shown: mCherry, N-terminal, kept; TwinStrep-FLAG-Halo, N-terminal, cleaved
- stoichiometry N [2]: 2

- median interaction time with microtubules [1]: 19.3 s
B3: KIF5B-GFP-mCherry-TRAK1 complex (complex)
chain 1: MADLAECNIKVMCRFRPLNESEVNRGDKYIAKFQGEDTVVIASKPYAFDRVFQSSTSQEQVYNDCAKKIVKDVLEGYNGTIFAYGQTSSGKTHTMEGKLHDPEGMGIIPRIVQDIFNYIYSMDENLEFHIKVSYFEIYLDKIRDLLDVSKTNLSVHEDKNRVPYVKGCTERFVCSPDEVMDTIDEGKSNRHVAVTNMNEHSSRSHSIFLINVKQENTQTEQKLSGKLYLVDLAGSEKVSKTGAEGAVLDEAKNINKSLSALGNVISALAEGSTYVPYRDSKMTRILQDSLGGNCRTTIVICCSPSSYNESETKSTLLFGQRAKTIKNTVCVNVELTAEQWKKKYEKEKEKNKILRNTIQWLENELNRWRNGETVPIDEQFDKEKANLEAFTVDKDITLTNDKPATAIGVIGNFTDAERRKCEEEIAKLYKQLDDKDEEINQQSQLVEKLKTQMLDQEELLASTRRDQDNMQAELNRLQAENDASKEEVKEVLQALEELAVNYDQKSQEVEDKTKEYELLSDELNQKSATLASIDAELQKLKEMTNHQKKRAAEMMASLLKDLAEIGIAVGNNDVKQPEGTGMIDEEFTVARLYISKMKSEVKTMVKRCKQLESTQTESNKKMEENEKELAACQLRISQHEAKIKSLTEYLQNVEQKKRQLEESVDALSEELVQLRAQEKVHEMEKEHLNKVQTANEVKQAVEQQIQSHRETHQKQISSLRDEVEAKAKLITDLQDQNQKMMLEQERLRVEHEKLKATDQEKSRKLHELTVMQDRREQARQDLKGLEETVAKELQTLHNLRKLFVQDLATRVKKSAEIDSDDTGGSAAQKQKISFLENNLEQLTKVHKQLVRDNADLRCELPKLEKRLRATAERVKALESALKEAKENASRDRKRYQQEVDRIKEAVRSKNMARRGHSAQIAKPIRPGQHPAASPTHPSAIRGGGAFVQNSQPVAVRGGGGKQV
chain 2: B1 chain 2
notes: KIF5B, kinesin-1 heavy chain, human, amino acids 1-963; as m1; TRAK1, cDNA KIAA1042; as m5; Only traces of mCherry-TRAK1 were analysed, so that the moving particles are complexes; also called KIF5B-TRAK1 transport complex; source: the two purified proteins (m1 from SF9, m5 from HEK293T) pre-incubated 10 min on ice; not shown: GFP, C-terminal, kept; 6xHis, C-terminal, cleaved; mCherry, N-terminal, …

- median interaction time with microtubules [1]: 2.22 s
B4: KIF5B∆-GFP in complex with mCherry-TRAK1∆ (complex)
chain 1: T1 sequence (looked up)
chain 2: MALVFQFGQPVRAQPLPGLCHGKLIRTNACDVCNSTDLPEVEIISLLEEQLPHYKLRADTIYGYDHDDWLHTPLISPDANIDLTTEQIEETLKYFLLCAERVGQMTKTYNDIDAVTRLLEEKERDLELAARIGQSLLKKNKTLTERNELLEEQVEHIREEVSQLRHELSMKDELLQFYTSAAEESEPESVCSTPLKRNESSSSVQNYFHLDSLQKKLKDLEEENVVLRSEASQLKTETITYEEKEQQLVNDCVKELRDANVQIASISEELAKKTEDAARQQEEITHLLSQIVDLQKKAKACAVENEELVQHLGAAKDAQRQLTAELRELEDKYAECMEMLHEAQEELKNLRNKTMPNTTSRRYHSLGLFPMDSLAAEIEGTMRKELQLEEAESPDITHQKRVFETVRNINQVVKQRSLTPSPMNIPGSNQSSAMNSLLSSCVSTPRSSFYGSDIGNVVLDNKTNSIILETEAADLGNDERSKKPGTPGTPGSHDLETALRRLSLRRENYLSERRFFEEEQERKLQELAEKGELRSGSLTPTESIMSLGTHSRFSEFTGFSGMSFSSRSYLPEKLQIVKPLEGSATLHHWQQLAQPHLGGILDPRPGVVTKGFRTLDVDLDEVYCLNDFEEDDTGD
notes: KIF5B, kinesin-1 heavy chain, human, amino acids 1-905; as m2; TRAK1, stop codon after amino acid 635; as m6; source: the two purified proteins (m2 from SF9, m6 from HEK293T) pre-incubated 10 min on ice; not shown: GFP, C-terminal, kept; 6xHis, C-terminal, cleaved; mCherry, N-terminal, kept; TwinStrep-FLAG-Halo, N-terminal, cleaved
